What all share (type): biochemical
Experiment [1] deals with pR58-GB. Description: binding and cleavage of pR58-GB on immobilized S189 matrix. How it is done:
The binding and catalytic properties of processing subtilisin allows them to be used as both the affinity matrix and processing protease for purification of proteins tagged with the pR58 sequence.
An E. coli cell lysate containing pR58-GB was passed over the matrix containing immobilized S189. Cleavage of the bound fusion protein then was then effected either by addition of a triggering anion (e.g. 10 mM KF) or by extended incubation (e.g. 18 hours at pH 7.2) as shown in FIG. 6. After cleavage the pure, processed protein was washed off the matrix while the cognate prodomain remains tightly bound to subtilisin on the matrix. Multiple rounds of purification can be affected by stripping the pR58 from the S189 column at pH 2.1 and re-equilibrating the column at neutral pH. High stable and facile-folding mutants such as those listed in the Table 1 (FIG. 3) of Processing Subtilisin are required for column recycling.

Experiment [2] has as its system fusion protein pR58-GB. The experiment is described as follows: kinetics of fusion protein pR58-GB cleavage by D32 mutants, anion triggered. The conditions noted are these: 0.1M KPi; for Rate vs. [Cl]: pH 8.8, 23 C; for Rate vs. pH: 23 C. The text has this:
Particularly advantageous are processing proteases whose activity is triggered on demand. Ions which have been useful as triggers are OH— (pH), Cl— and F—. The tables summarize cleavage rates of various D32 mutants as a function of specific anion.
Thus, S189 can be trigger to increase cleavage rates if desired and this can be very advantageous when required in a purification process. Once the fusion protein is bonded to the subtilisin variant to form a binding complex, the target protein can be cleaved from the prodomain protein by activation of the subtilisin variant with the introduction of an activating ion solution.

Experiment [3] concerns 671 (pR58FKAM-GB). The experiment is described as follows: fluoride-triggered cleavage/elution of 671 fusion protein on S189HT1 column. The following applies: cleavage/elution by 0.1M KF, FIG. 14. How it is done: (10 μl of 1 ml fraction 1; ˜7 μg total) • Lane 6: cleavage/elution by 0.1 M KF. (10 μl of 1 ml fraction 2; ˜3 μg total) • Lane 7: strip by 0.1 M H3PO4 (10 μl of 1 ml fraction 1; ˜10 μg total in both bands combined).

B1: S189: processing subtilisin with D32A mutation (protein, UniProt P00782 108-382, looked up, variant D32A)
Subtilisin BPN': AQSVPYGVSQIKAPALHSQGYTGSNVKVAVIASGIDSSHPDLKVAGGASMVPSETNPFQDNNSHGTHVAGTVAALNNSIGVLGVAPSASLYAVKVLGADGSGQYSWIINGIEWAIANNMDVINMSLGGPSGSAALKAAVDKAVASGVVVVAAAGNEGTSGSSSTVGYPGKYPSVIAVGAVDSSNQRASFSSVGPELDVMAPGVSIQSTLPGNKYGAYNGTSMASPHVAGAAALILSKHPNWTNTQVRSSLENTTTKLGDSFYYGKGLINVQAAAQ
For the molecule B1, in experiment [1] (FIG. 5), the “rate of binding to the prodomain” value was “rapid”. The half-time of cleavage result in experiment [1] (FIG. 6, a lag phase is evident) is “about four”. Also, the Rate in experiment [2] (pH 7.2, 23 C) turned out to be 0.18 h⁻¹. For the same molecule, the figures for the “Rate vs. [Cl]” value in experiment [2] ([Cl] 0 M) and in experiment [2] ([Cl] 0.5 M) were 0.97 h⁻¹ and 5 h⁻¹, respectively. Further, the “Rate vs. [F]” value in experiment [2] ([F] 0 mM, pH 7.2, 23 C) came to 0.003 min⁻¹; in experiment [2] ([F] 1 mM, pH 7.2, 23 C), 0.018 min⁻¹; in experiment [2] ([F] 10 mM, pH 7.2, 23 C), 0.14 min⁻¹; in experiment [2] ([F] 100 mM, pH 7.2, 23 C) it was 0.8 min⁻¹. Besides, the “Rate vs. pH” value in experiment [2] (pH 5.7) worked out at 0.135 hr^−1; in experiment [2] (pH 7.2) it was 0.18 hr^−1; in experiment [2] (pH 8.8) it was 0.97 hr^−1; in experiment [2] (pH 10.0), 4 hr^−1. In addition, the cleavage reaction complete in experiment [3] is reported as about 90%.

For the origin of these results see patent publication US7824885B2, “Engineered proteases for affinity purification and processing of fusion proteins” (University of Maryland, College Park, priority 2003, dated 2010).
